According to the PETadex activity labels (doi:10.1021/ma200949p):
Where a chain is given by its changes, count along the chain named.

B1: unnamed (protein)
chain: MAVMTPRRERSSLLSRALQVTAAAATALVTAVSLAAPAHAANPYERGPNPTDALLEASSGPFSVSEENVSRLSASGFGGGTIYYPRENNTYGAVAISPGYTGTEASIAWLGERIASHGFVVITIDTITTLDQPDSRAEQLNAALNHMINRASSTVRSRIDSSRLAVMGHSMGGGGTLRLASQRPDLKAAIPLTPWHLNKNWSSVTVPTLIIGADLDTIAPVATHAKPFYNSLPSSISKAYLELDGATHFAPNIPNKIIGKYSVAWLKRFVDNDTRYTQFLCPGPRDGLFGEVEEYRSTCPF
B2: unnamed (protein)
chain: MANPYERGPNPTDALLEARSGPFSVSEERASRFGADGFGGGTIYYPRENNTYGAVAISPGYTGTQASVAWLGERIASHGFVVITIDTNTTLDQPDSRARQLNAALDYMINDASSAVRSRIDSSRLAVMGHSMGGGGTLRLASQRPDLKAAIPLTPWHLNKNWSSVRVPTLIIGADLDTIAPVLTHARPFYNSLPTSISKAYLELDGATHFAPNIPNKIIGKYSVAWLKRFVDNDTRYTQFLCPGPRDGLFGEVEEYRSTCPF
B3: unnamed (protein)
chain: MANPYERGPNPTDALLEARSGPFSVSEENVSRLSASGFGGGTIYYPRENNTYGAVAISPGYTGTEASIAWLGERIASHGFVVITIDTITTLDQPDSRAEQLNAALNHMINRASSTVRSRIDSSRLAVMGHSMGGGGSLRLASQRPDLKAAIPLTPWHLNKNWSSVRVPTLIIGADLDTIAPVLTHARPFYNSLPTSISKAYLELDGATHFAPNIPNKIIGKYSVAWLKRFVDNDTRYTQFLCPGPRDGLFGEVEEYRSTCPF
B4: unnamed (protein)
chain: B3 chain with R19S, S137T, R166T, L183A, R187K, T195S

Key:
pNPB [1] = assay: Proxy for plastic degradation [Km]; settings: pH 7
pNPB [2] = assay: Proxy for plastic degradation [kcat] (s⁻¹); settings: pH 7
PET [3] = assay: Proxy for plastic degradation [Released monomer concentration (HPLC/LC-MS) (BA)]; settings: pH 7
PET [4] = assay: Proxy for plastic degradation [Released monomer concentration (HPLC/LC-MS) (HEB)]; settings: pH 7
MHET = assay: Proxy for plastic degradation [Released monomer concentration (HPLC/LC-MS) (MHET)]; settings: pH 7
PET [5] = assay: Proxy for plastic degradation [Released monomer concentration (HPLC/LC-MS) (MHET+BA, TA, HEB)]; settings: pH 7
p-NP-C2 = settings: pH 7, 25 °C
p-NP-C4 = settings: pH 7, 25 °C
pNP-C2 [6] = assay: Proxy for plastic degradation [Km]; settings: pH 7
pNP-C2 [7] = assay: Proxy for plastic degradation [kcat] (s⁻¹); settings: pH 7
PET [8] = assay: Proxy for plastic degradation [Released monomer concentration (HPLC/LC-MS) (TPA)] (mmol/mol enzyme); settings: pH 7
PET [9] = assay: Proxy for plastic degradation [Released monomer concentration (HPLC/LC-MS) (TPA+MHET+BA+HEB)] (mmol/mol enzyme); settings: pH 7
PET [10] = assay: Proxy for plastic degradation [Released monomer concentration (HPLC/LC-MS) (BA (benzoic acid))] (mmol/mol enzyme); settings: pH 7
PET [11] = assay: Proxy for plastic degradation [Released monomer concentration (HPLC/LC-MS) (HEB (2-hydroxyethyl benzoate))] (mmol/mol enzyme); settings: pH 7
PET [12] = assay: Proxy for plastic degradation [Water contact angle]; settings: pH 7
PET [13] = assay: Proxy for plastic degradation [Surface fluorescence after BrNP labelling]; settings: pH 7; part of the chain shown

| Protein | Proxy for plastic degradation (pNPB [1]) [µM] | Proxy for plastic degradation (pNPB [2]) | Km (p-NP-C2; part of the chain shown) [µM] | kcat (p-NP-C2; part of the chain shown) [s⁻¹] | kcat/Km (p-NP-C2; part of the chain shown) [M⁻¹ s⁻¹] | Km (p-NP-C4; part of the chain shown) [µM] | kcat (p-NP-C4; part of the chain shown) [s⁻¹] | kcat/Km (p-NP-C4; part of the chain shown) [M⁻¹ s⁻¹] | Proxy for plastic degradation (pNP-C2 [6]; part of the chain shown) [µM] | Proxy for plastic degradation (pNPB [1]; part of the chain shown) [µM] | Proxy for plastic degradation (pNP-C2 [7]; part of the chain shown) | Proxy for plastic degradation (pNPB [2]; part of the chain shown) | Proxy for plastic degradation (PET [3]; part of the chain shown) [mmol/mol] | Proxy for plastic degradation (PET [4]; part of the chain shown) [mmol/mol] | Proxy for plastic degradation (MHET; 50 °C, part of the chain shown) [mmol/mol] | Proxy for plastic degradation (MHET; part of the chain shown) [mmol/mol] | Proxy for plastic degradation (PET [5]; part of the chain shown) [mmol/mol] | Proxy for plastic degradation (PET [8]; part of the chain shown) | Proxy for plastic degradation (PET [9]; 2 h, part of the chain shown) | Proxy for plastic degradation (PET [10]; part of the chain shown) | further results |
| --- | --- | --- | --- | --- | --- | --- | --- | --- | --- | --- | --- | --- | --- | --- | --- | --- | --- | --- | --- | --- | --- |
| B1 | 2100 | 30.9 | – | – | – | – | – | – | – | – | – | – | – | – | – | – | – | – | – | – | Proxy for plastic degradation (PET [3]): 23 mmol/mol; Proxy for plastic degradation (PET [4]): 22 mmol/mol; Proxy for plastic degradation (MHET): 15 mmol/mol; Proxy for plastic degradation (MHET; 50 °C): 7 mmol/mol; Proxy for plastic degradation (PET [5]): 49 mmol/mol |
| B2 | – | – | 200 | 2.4 | 12000 | 2130 | 5.3 | 2480 | 200 | 2130 | 2.4 | 5.3 | 28 | 29 | 13 | 18 | 76 | 5 | 90 | 27.9 | Proxy for plastic degradation (PET [11]; part of the chain shown): 28.6 |
| B3 | 2100 | 30.9 | – | – | – | – | – | – | – | – | – | – | – | – | – | – | – | – | – | – | Km (p-NP-C2): 167 µM; kcat (p-NP-C2): 39.5 s⁻¹; kcat/Km (p-NP-C2): 237000 M⁻¹ s⁻¹; Km (p-NP-C4): 2100 µM; kcat (p-NP-C4): 30.9 s⁻¹; kcat/Km (p-NP-C4): 14700 M⁻¹ s⁻¹; Proxy for plastic degradation (pNP-C2 [6]): 167 µM; Proxy for plastic degradation (pNP-C2 [7]): 39.5; Proxy for plastic degradation (PET [12]): 71.2 °; Proxy for plastic degradation (PET [8]): 42; Proxy for plastic degradation (PET [9]; 2 h): 64; Proxy for plastic degradation (PET [9]; 24 h): 830; Proxy for plastic degradation (PET [9]; 72 h): 1820; Proxy for plastic degradation (PET [10]): 22.7; Proxy for plastic degradation (PET [11]): 23.4 |
| B4 | – | – | 127 | 212 | 1.67e+06 | 1480 | 195 | 132000 | 127 | 1480 | 212 | 195 | 48 | 32 | 5 | 25 | 63 | 56 | 119 | 48.9 | Proxy for plastic degradation (PET [12]; part of the chain shown): 66.3 °; Proxy for plastic degradation (PET [13]): 1540 AU; Proxy for plastic degradation (PET [11]; part of the chain shown): 32 |
